In the DeepSol protein solubility set:

Assay: soluble on expression in E. coli; label from the status in PepcDB or PDB records

Soluble on expression in E. coli, not soluble:
MGSDKIHHHHHHMNSLQSTHPPKLNSCDRQVILDYFENAWQLEDMLMKTLVEEDTFYLNPDPLRNPLIFYLGHSAVFYINKLISVGLLEKRINPDYEILFEIGVDPEVPEELNQAIAHLEWPQVAQTWEYRKQAYTVIAEVIKTTPITLPIHPTHPLWALMMGIEHQRIHIETSSMLIRQLPIERVKRPQNWQYAPFNGYTAQNEMIQVIGGVVKLGKAFNDPTYGWDIDYGDRTVEVEPFLASKYLITNADFSYFVKAGGYENQAYWDEESWHWKTENNIQYPKFWIHQNGIYKYRAMFDEIDLPLDWPVEVNHYEAMAYCCWQGKDTRLMSEAEYHLATYGSGLVEDVDNYNVNLKFGSPSPVGMLETAKSYSGLYDLRGNVWEHLSDNLNPLPGYKPHFLYEDNSAIFFDNKHQMMLGGCWITNGTEALKYYRNWFRPNFYQHAGFRIVQDMKH
MGSDKIHHHHHHMKRVQNLLVAVGLSPNYHRRTYPSGKKSLVVRFYATLTPGLEDVAAKEVESFGCKVEEIRERRGRIFFSGEKSAIPLLNHFSRTLERLNVLLLRCEVEGLDDIYAAVKGLDFSFVKGKSFAIRSLRVGEHDFTSMDIARVAGQAVIDSFMESYGERLKVNLNQPDVIIRVELVDSELFVGVDTTGDDAMHKRWWRVYNHPAHLNAAIACGMLRIADWKVDESLIDPMCGSGTIPIEAALMVRNVPNLRDFAYKKLCEWELAFEPNEVRLKLYGMEKFRKHLVGAIRNAVNAGVADTIEFRQGDATEMTGEYDVIITNPPYGLRIHRKGAIERLYHSFARAAKRCMNQNSRLVIITAEHRVFANAAEEAGLQCTHERFVKYGGLLTKIMVFMI
MIDIHCHILPAMDDGAGDSADSIEMARAAVRQGIRTIIATPHHNNGVYKNEPAAVREAADQLNKRLIKEDIPLHVLPGQEIRIYGEVEQDLAKRQLLSLNDTKYILIEFPFDHVPRYAEQLFYDLQLKGYIPVIAHPERNREIRENPSLLYHLVEKGAASQITSGSLAGIFGKQLKAFSLRLVEANLIHFVASDAHNVKTRNFHTQEALYVLEKEFGSELPYMLTENAELLLRNQTIFRQPPQPVKRRKLFGFF
MDTPRPQLLDFQFHQNNDSFTLHFQQRLILTHNKDNPCLWIGSGIADIDMFRGNFSIKDKLQEKIALTDAIVSQSPDGWLIHFSRGSDISATLNISADDQGRLLLELQNDNLNHNRIWLRLAAQPEDHIYGCGEQFSYFDLRGKPFPLWTSEQGVGRNKQTYVTWQADCKENAGGDYYWTFFPQPTFVSTQKYYCHVDNSCYMNFDFSAPEYHELALWEDKATLRFECADTYISLLEKLTALLGRQPELPDWIYDGVTLGIQGGTEVCQKKLDTMRNAGVKVNGIWAQDWSGIRITSFGKRVMWNWKWNSENYPQLDSRIKQWYQEGVQFLAYINPYVASDKDLCEEAAQHGYLAKDASGGDYLVEFGEFYGGVVDLTNPEAYAWFKEVIKKNMIELGCGGWMADFGEYLPTDTYLHNGVSAEIMHNAWPALWAKCNYEALEETGKLGEILFFMRAGSTGSQKYSTMMWAGDQNVDWSLDDGLASVVPAALSLAMTGHGLHHSDIGGYTTLFEMKRSKELLLRWCDFSAFTPMMRTHEGNRPGDNWQFDGDAETIAHFARMTTVFTTLKPYLKEAVALNAKSGLPVMRPLFLHYEDDAHTYSLKYQYLLGRDILVAPVHEEGRSDWTLYLPEDNWVHAWTGEAFRGGEVTVNAPIGKPPVFYRADSEWAALFASLNSI
MGSDKIHHHHHHMQVLLVGGTGTLGRQIARRAIDAGHQVRCMVRKPRKGAFLQEWGCELTCGDLLDPETIDYSLDGIDAVIDAATSRPDDSASVYTTDWDGKLNLLRACEKAGVTRYVFLSLLAAEKHLNVPLMDIKFCTERLLADSSFDYTILQGVAFMQGLIGQIAIPVLENQTVWVSETPTAVAYMNTQDVARFAVAALERPETIRRSFPVVGPKAWTSEEIVQFCEKSSSKTAKVIRVSPFLIGLSQRVVSFFEQSVNMAERLAFAEVTGGGIALDAPMDDTYSCFGLDSSETTPLESYISEYYDTILKRLREMEADLDEESRKKLPF
MPKIAEIEGTPNPNALKFVLKEPLTWGVAKSYDHAEQAVDDPLAAALFDIDHVTNVFYVDRWITITQDGGADWQDLAREVADPIRAAPAATDQSAAVVAAASRTLADLSEEDQQRLERINILLDEEVRPFLQHDGGDLHVLALEGNILRIHYQGACGTCPSSISGTLRGIEQLLRTIEPDIRVVSA
MGSDKIHHHHHHMIRFKDIHIPKPCSVEYDTLPGDDIKRFCGSCEKYVYDFRGKDQAYLNAVFSATGKACGIYYADQIQASPALKTNRPFYSSFVSKLIATSLFLRIFLTSNNTKAHRTEPQTIVQQTTDSTELKTIHTGNDKAMYRVTVDIYKNDTLEESFLLENQNSIYLPDSIKPLDKIKVVVSTVRYNIPTSKNRTRSGKYMSNKTYYTTEQKKTYHFNFAGCNKIIIKIRHTKFIHIFLKKRTAIMGLVCPSDFW
MSEIKTDDPKRGIKLRGADKTARIPIKVVPLQEKLKKPEWIRAKLPSRKFFEIKDILREQKMHTVCEEASCPNIGECFSKGTATFMIMGDICTRRCPFCDVGHGRPNMLDPDEPRNLAESVKAMNLRYVVITSVDRDDLRDGGAQHFADCIKAIRETSPNTKIEILVPDFRGRLDIALKILAETPPDVMNHNLETHPSLYRKARPGANYQHSLDLLKRYKEMMPHIPTKSGIMVGLGETDEDVREIMRDMRAHNIEMITIGQYLQPSDGHLPVLRYVTPEQFKIFEKEAYELGFSNAAIGAMVRSSYHADEQAAEALRESHGGCGHH

Soluble on expression in E. coli, soluble:
MSLESLVPYNETVSTEVQFAKALEKYKFDLLHAKSNFHDQDQEQNTADVNNQHLQTQAQSSSPFDIVQKFADIAAANAYSVLPDQLSSNIDDDVYDQDFTNWDLEMKFWRLVENLNYYRVFCYENEVFGKEKEIGELYAILDWLQYHSAGEREHDQILKDQLGNEDENGNGDEEEKLLGTRSKWINTRLSIENGVYDALSGKNSNDQLIQEMDVDAPLRSGMHVDAKDAELDSKNFQAIYKLVVLGEYTDAIEFANETGNHALAVILAGAISFVEDDDQVMELANEVEGEGNIKLSASTRDKTIWVRLVYKLSKNTNLDPNERLIYSYLSGGDISENLKRASDSYEESINILVRQLLTYSELQKMHLNSFVEFTPPAPQANSMKDILNIVSNSLGSRAAEESRHPVRILMAAIMLDDLDPIISDLNDSTNDNILRILVHASLFLALLRSPQNPEQLNALITLYISKLTENNQTELVPLYLSFIPDERDARETYSLILASITDKEQRRKQLEIAKGISQSHQQSPLPLLQSQPSSHSNEDTEMVPIDDVEQDKLVNVLRRTVERVMDETEEYYNPGNEPFAIVDSGSEGHHHHHH
MKLKLYLIPLLASGIILSACSSTTSQVISSLSSAQKYFEANKGELNKNNVINILKDGYNSDPNKTVNALLAGWKYTLMDQKLLENNLDPSRFKNTFGPNKNKDDVTPNISEKGLFLNETFTGLGSQIAEVFNVQKQIVSGFSYSWTSPKSFKVNIHIKMEGMINEKSKETIKSFLSNKDSNGSNSVEESEYTGDKAKFTADFIFSYTPPTGGTRSLTDKSFDVITNMINFPADVKIDVNTSHNKLNELLEKNDQVKRMKSRTFNGRNIDLLPFFYYALL
MVNSSKSILIHAQNKNGTHEEEQYLFAVNNTKAEYPRDKTIHQLFEEQVSKRPNNVAIVCENEQLTYHELNVKANQLARIFIEKGIGKDTLVGIMMEKSIDLFIGILAVLKAGGAYVPIDIEYPKERIQYILDDSQARMLLTQKHLVHLIHNIQFNGQVEIFEEDTIKIREGTNLHVPSKSTDLAYVIYTSGTTGNPKGTMLEHKGISNLKVFFENSLNVTEKDRIGQFASISFDASVWEMFMALLTGASLYIILKDTINDFVKFEQYINQKEITVITLPPTYVVHLDPERILSIQTLITAGSATSPSLVNKWKEKVTYINAYGPTETTICATTWVATKETIGHSVPIGAPIQNTQIYIVDENLQLKSVGEAGELCIGGEGLARGYWKRPELTSQKFVDNPFVPGEKLYKTGDQARWLSDGNIEYLGRIDNQVKIRGHRVELEEVESILLKHMYISETAVSVHKDHQEQPYLCAYFVSEKHIPLEQLRQFSSEELPTYMIPSYFIQLDKMPLTSNGKIDRKQLPEPDLTFGMRVDYEAPRNEIEETLVTIWQDVLGSHHHHHH
MFEDLLQTKRLIKSYYYYPKLVLVINIAEYLYSKGRDVCIFNFDKIKWEYYPYNLNFHMKCNERSENIIFEAEDESEIPNNFSLVTSIKKLNLGIPQSEIQKLDQNLFKINIDNKIYLFRIIEGKIVEEKIKGLSEEIINILREYNELSLKEIVDILYHKTNSSRDNIRKEIYFLKDIGVIEIKNGKVLLNNNSWLKR
MKKLVTATTLTAGIGAAIVGLDHGNEADAAEQTQPTNQSTTQSTSGSSANLYTAGQCTWYVYDKVGGNIGSTWGNANNWASAASSAGYTVNNSPEAGSILQSTAGGYGHVAYVENVNSDGSVEVSEMNYNGGPFSVSERTISAGEASSYNYIHLNLEHHHHHH
MSLSNYISIKGAKVNNLKNIDVNIPRNKLVVITGLSGSGKSSLAFDTGKTICPVCHGTRLKKEAGYVKVGGKSISQLVDLPIHDLKEFFRTLELDAHDTAIAKRILTEITNRINFLMDVGLGYLTLNRLSNSLSGGESQRINLATSLGSSLVGSLYILDEPSIGLHSRDTDRLIKVLRQLQELGNTVVVVEHDEEIIRAADYIIDIGPQAGRLGGQIVYQGNMNDLQRNSNSYTVRYLLGEEGHHHHHH
MWMKDPVARPLSPTRLQPALPPEAQSVPELEEVARVLAEIPRPLKRRGSMEQAPAVALPPTHKKQYQQIISRLFHRHGGPGPGGRSQSCPPSLRDLRPGQGPLLLPHQLPFHRPAPSQSSPPEQPQSMEMRSVLRKAGSPRKARRARLNPLVLLLDAALTGELEVVQQAVKEMNDPSQPNEEGITALHNAICGANYSIVDFLITAGANVNSPDSHGWTPLHCAASCNDTVICMALVQHGAAIFATTLSDGATAFEKCDPYREGYADCATYLADVEQSMGLMNSGAVYALWDYSAEFGDELSFREGESVTVLRRDGPEETDWWWAALHGQEGYVPRNYFGLFPRVKPQRSKV
MPKKPLIDQLHHEDSWRLFRILAEFVEGFETLSELQVPLVSVFGSARFGEGHPAYEAGYRLGRALAEAGFGVVTGGGPGVMEAVNRGAYEAGGVSVGLNIELPHEQKPNPYQTHALSLRYFFVRKVLFVRYAVGFVFLPGGFGTLDELSEVLVLLQTEKVHRFPVFLLDRGYWEGLVRWLAFLRDQKAVGPEDLQLFRLTDEPEEVVQALKAEAPPR
GSHHHHHHGSHMDEKLLKTIAESKYLVALTGAGVSAESGIPTFRGKDGLWNRYRPEELANPQAFAKDPEKVWKWYAWRMEKVFNAQPNKAHQAFAELERLGVLKCLITQNVDDLHERAGSRNVIHLHGSLRVVRCTSCNNSFEVESAPKIPPLPKCDKCGSLLRPGVVWFGEMLPPDVLDRAMREVERADVIIVAGTSAVVQPAASLPLIVKQRGGAIIEINPDETPLTPIADYSLRGKAGEVMDELVRHVRKALS
AALAEIVAQLNIYQSQVELIQQQMEAVRATISELEILEKTLSDIQGKDGSETLVPVGAGSFIKAELKDTSEVIMSVGAGVAIKKNFEDAMESIKSQKNELESTLQKMGENLRAITDIMMKLSPQAEELLAAVA
SLELWLNKATDPSMSEQDWSAIQNFCEQVNTDPNGPTHAPWLLAHKIQSPQEKEALYALTVLEMCMNHCGEKFHSEVAKFRFLNELIKVLSPKYLGSWATGKVKGRVIEILFSWTVWFPEDIKIRDAYQMLKKQGIIKQDPKLPVDKI
